From the supplement of paper PMC10724198
± gives the standard deviation of the averaged measurements.

Key:
Saccharomyces cerevisiae [1] = test: protein stability index of tFT-peptide fusion (C-terminal peptide) (PSI (0-1 scale)); higher = more stable (slower turnover)
Protocol: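 MPS profiling in S. cerevisiae of the tFT-X12 degron library: putative degron peptides plus stable controls, 12 aa, fused to the C-terminus of a sfGFP-mCherry timer. Cells are FACS-sorted into 8 mCherry/sfGFP bins and deep-sequenced. PSI runs from 0 (unstable) to 1 (stable). Backgrounds are wild type, das1Δ and doa10Δ at 30 °C, and wild type, das1Δ, cdc34-1 and cdc53-1 at 37 °C; 2-3 technical replicates each.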

Saccharomyces cerevisiae [2] = test: as above; details: genetic background: wild type; temperature: 30 C
[3] = genetic background: cdc34-1, temperature: 37 C
[4] = genetic background: cdc53-1, temperature: 37 C
[5] = genetic background: das1 deletion, temperature: 30 C
[6] = genetic background: das1 deletion, temperature: 37 C
[7] = genetic background: doa10 deletion, temperature: 30 C
[8] = genetic background: wild type, temperature: 30 C
[9] = genetic background: wild type, temperature: 37 C
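Further: PSI is a weighted mean of sequencing reads over stability bins, variants kept only with over 10 reads, mCherry proximal and sfGFP distal, peptide attached via GGGS linker.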

Row | Sequence | protein stability index (Saccharomyces cerevisiae [1]; [3]) | protein stability index (Saccharomyces cerevisiae [1]; [4]) | protein stability index (Saccharomyces cerevisiae [1]; [5]) | protein stability index (Saccharomyces cerevisiae [1]; [6]) | protein stability index (Saccharomyces cerevisiae [1]; [7]) | protein stability index (Saccharomyces cerevisiae [1]; [8]) | protein stability index (Saccharomyces cerevisiae [1]; [9]) | protein stability index (Saccharomyces cerevisiae [2])
1 | WVCCFVWGCLIR | 0.2 ± 0.044 | 0.187 ± 0.0078 | 0.239 ± 0.021 | 0.353 ± 0.027 | 0.295 ± 0.0035 | 0.233 ± 0.019 | 0.303 ± 0.0074 | 0.281 ± 0.0081
2 | WVLSRAAFVFFF | 0.587 ± 0.04 | 0.612 ± 0.0096 | 0.473 ± 0.019 | 0.606 ± 0.011 | 0.322 ± 0.0078 | 0.337 ± 0.022 | 0.5201 ± 0.0035 | 0.44 ± 0.018
3 | WVVLVCGFVLLG | 0.246 ± 0.0069 | 0.369 ± 0.0077 | 0.243 ± 0.042 | 0.442 ± 0.0073 | 0.22 ± 0.0029 | 0.234 ± 0.019 | 0.361 ± 0.012 | 0.3175 ± 0.0027
4 | YAFSTCTILIRF | 0.187 ± 0.0071 | 0.154 ± 0.044 | 0.211 ± 0.034 | 0.338 ± 0.015 | 0.38 ± 0.013 | 0.222 ± 0.018 | 0.3071 ± 0.0018 | 0.328 ± 0.048
5 | YFTNCYRSILTF | 0.4366 ± 0.0011 | 0.487 ± 0.013 | 0.367 ± 0.047 | 0.51517 ± 0.00037 | 0.3196 ± 0.00079 | 0.355 ± 0.031 | 0.48177 ± 0.00025 | 0.4436 ± 0.00083
6 | YGWILQLPCFVI | 0.246 ± 0.02 | 0.237 ± 0.00093 | 0.24 ± 0.031 | 0.37294 ± 0.00032 | 0.219 ± 0.0057 | 0.245 ± 0.023 | 0.315 ± 0.027 | 0.338 ± 0.0082
7 | YHDKLRAIEKFF | 0.669 ± 0.03 | 0.725 ± 0.0075 | 0.635 ± 0.018 | 0.74 ± 0.03 | 0.199 ± 0.019 | 0.219 ± 0.04 | 0.49 ± 0.0052 | 0.331 ± 0.065
8 | YLCFVVSCGVLR | 0.421 ± 0.0051 | 0.475 ± 0.026 | 0.327 ± 0.031 | 0.529 ± 0.0087 | 0.295 ± 0.018 | 0.313 ± 0.017 | 0.5035 ± 0.0016 | 0.383 ± 0.086
9 | YLFFSCIFTFSC | 0.121 ± 0.025 | 0.198 ± 0.027 | 0.179 ± 0.024 | 0.331 ± 0.014 | 0.189 ± 0.011 | 0.211 ± 0.091 | 0.273 ± 0.018 | 0.316 ± 0.025
10 | YLFLPGGEVSVH | 0.641 ± 0.033 | 0.653 ± 0.019 | 0.538 ± 0.032 | 0.666 ± 0.0033 | 0.5204 ± 0.0031 | 0.553 ± 0.019 | 0.6369 ± 0.00098 | 0.487 ± 0.083
11 | YLGSPLSLMLVA | 0.48 ± 0.022 | 0.491 ± 0.026 | 0.379 ± 0.031 | 0.51 ± 0.006 | 0.332 ± 0.031 | 0.355 ± 0.022 | 0.481 ± 0.009 | 0.475 ± 0.032
12 | YPFSLVLGVFAF | 0.367 ± 0.02 | 0.389 ± 0.022 | 0.298 ± 0.028 | 0.456 ± 0.0094 | 0.285 ± 0.01 | 0.325 ± 0.0062 | 0.4104 ± 0.0034 | 0.405 ± 0.033
13 | YPPLFLLMRGVL | 0.594 ± 0.021 | 0.694 ± 0.013 | 0.605 ± 0.018 | 0.712 ± 0.021 | 0.157 ± 0.011 | 0.175 ± 0.034 | 0.357 ± 0.016 | 0.258 ± 0.075
14 | YRHYGVARKKLA | 0.592 ± 0.075 | 0.7016 ± 0.0023 | 0.634 ± 0.034 | 0.713 ± 0.028 | 0.081 ± 0.009 | 0.134 ± 0.01 | 0.127 ± 0.016 | 0.152 ± 0.0056
15 | YTQKFTFYGLPA | 0.701 ± 0.035 | 0.721 ± 0.013 | 0.639 ± 0.038 | 0.727 ± 0.013 | 0.618 ± 0.033 | 0.616 ± 0.016 | 0.708 ± 0.02 | 0.027 ± 0.023
16 | YVRHDKLILSFC | 0.492 ± 0.026 | 0.529 ± 0.041 | 0.427 ± 0.021 | 0.5562 ± 0.0027 | 0.3915 ± 0.002 | 0.414 ± 0.019 | 0.54 ± 0.011 | 0.489 ± 0.013
17 | YVSLPFVVWWFC | 0.443 ± 0.029 | 0.533 ± 0.016 | 0.414 ± 0.026 | 0.591 ± 0.0081 | 0.1839 ± 0.0011 | 0.198 ± 0.014 | 0.375 ± 0.0063 | 0.309 ± 0.033
18 | YWFWLLIGSFSC | 0.487 ± 0.053 | 0.51 ± 0.013 | 0.382 ± 0.026 | 0.526 ± 0.011 | 0.36 ± 0.019 | 0.382 ± 0.024 | 0.504 ± 0.012 | 0.4576 ± 0.0029
19 | YWGFHPCCAFGY | 0.722 ± 0.048 | 0.784 ± 0.012 | 0.636 ± 0.013 | 0.77 ± 0.023 | 0.654 ± 0.035 | 0.659 ± 0.019 | 0.745 ± 0.051 | 0.711 ± 0.0091
20 | YYQVSQKIQRKQ | 0.681 ± 0.012 | 0.708 ± 0.021 | 0.639 ± 0.023 | 0.726 ± 0.042 | 0.323 ± 0.0077 | 0.371 ± 0.018 | 0.584 ± 0.014 | 0.435 ± 0.065
